Measured values: patent publication US20110104713A1, “PRODUCTS AND PROCESSES FOR MODULATING PEPTIDE-PEPTIDE BINDING DOMAIN INTERACTIONS” (priority 2002, published 2011)

Key:
[1] = target: T1, Plk-1 PBD (residues 326-603) (Homo sapiens, UniProt P53350); assay: Isothermal titration calorimetry of peptides with Plk-1 PBD; assay type: binding; conditions: ITC; no detectable binding for a Plk1 PBD concentration of at least 150 μM
T1 construct: sample cell containing 15 μM Plk-1 PBD (residues 326-603); GST (N, cleaved yes); made in house; host or cells: E. coli BL21
T1 sequence (P53350 326-603): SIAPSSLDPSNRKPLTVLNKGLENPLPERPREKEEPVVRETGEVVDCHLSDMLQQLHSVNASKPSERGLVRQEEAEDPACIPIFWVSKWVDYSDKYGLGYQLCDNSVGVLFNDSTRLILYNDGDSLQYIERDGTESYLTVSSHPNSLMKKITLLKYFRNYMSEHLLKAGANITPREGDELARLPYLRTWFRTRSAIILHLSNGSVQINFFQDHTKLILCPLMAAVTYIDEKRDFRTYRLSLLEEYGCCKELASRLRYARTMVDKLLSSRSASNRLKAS
Method: For deletion mapping of the PBD, C-terminal fragments of Plk-1 were generated by PCR and cloned into the EcoRI and XhoI sites of pcDNA3.1 (Invitrogen). For production of recombinant PBD as a GST fusion in bacteria, the 326-603 fragment of Plk-1 was ligated into the EcoRI and XhoI sites of pGEX-4T (Pharmacia), transformed into BL21, and induced in late log-phase cells at 37° C. for 3.5 hours in the presence of 0.4 mM IPTG. For measurements of peptide binding affinity by ITC, GST-Plk-1 (326-603) was isolated from bacterial lysates using glutathione agarose, cleaved from GST using thrombin (10 U/mL), and purified by anion exchange chromatography (Q Sepharose HP, Pharmacia).
Peptides were synthesized by solid phase technique with two C-terminal lysines to enhance solubility, purified by reverse phase HPLC following deprotection, and confirmed by MALDI-TOF 9 Matrix-assisted laser desorption/ionisation-time of flight mass spectrometry. Some peptides contained an additional tyrosine residue to facilitate concentration determination by optical absorbance. calorimetry measurements were performed using a VP-ITC microcalorimeter (MicroCal Inc., Studio City, Calif.). Experiments involved 10 μL injections of peptide solutions (150 μM-180 μM) into a sample cell containing 15 μM Plk-1 PBD (residues 326-603) in 50 mM Tris/HCl (pH 8.1), 200 mM NaCl, 2 mM TCEP. Thirty injections were performed with a spacing of 240 s and a reference power of 25 μCal/s. Binding isotherms were plotted and analyzed using Origin Software (MicroCal Inc. Studio City, Calif.).
Peptides were synthesized by solid phase technique with two C-terminal lysines to enhance solubility. Some peptides contained an additional tyrosine residue to facilitate concentration determination by optical absorbance. Isothermal titration calorimetry was performed using a VP-ITC microcalorimeter (MicroCal Inc. Studio City, Calif.) by titration of 15-40 μM solutions of PBD proteins with 30×10 μl injections of […] peptide in a starting volume of 1.4-2.0 ml. Binding isotherms were plotted and analyzed using Origin Software (MicroCal Inc. Studio City, Calif.). Binding of in vitro translated Plk1 PBD (wild type and mutants) to bead-immobilized pTP and TP peptide libraries was performed as described previously (Elia et al., Science 299:1228-1231, 2003). pTP and TP indicate the peptide libraries biotin-Z-Gly-Z-Gly-Gly-Ala-X-X-B-X-pThr-Pro-X-X-X-X-Ala-Lys-Lys-Lys SEQ ID NO: 30 biotin-Z-Gly-Z-Gly-Gly-Ala-X-X-B-X-Thr-Pro-X-X-X-X-Ala-Lys-Lys-Lys SEQ ID NO: 31, respectively, where pThr is phosphothreonine, Z is aminohexanoic acid, X denotes all amino acids except Cys, and B is a biased mixture of the amino acids P, L, I, V, F, M, W.

[2] = target: T2, GST-Plk-1 PBD (residues 326-603) interaction with mitotic phosphoproteins (Homo sapiens, UniProt P53350); assay: Peptide competition of GST-Plk-1 PBD pull-down of MPM-2 mitotic phosphoproteins from HeLa lysates; assay type: binding; conditions: 320 μM peptide, 45 minutes at 4° C., nocodazole-arrested HeLa lysates
T2 construct: GST-Plk-1 (residues 326-603) was immobilized on glutathionine beads; made in house; host or cells: E. coli BL21
T2 sequence (P53350 326-603): as above
Method: HeLa cells were arrested in interphase or G2/M by treatment with aphidicolin (5 μg/mL) or nocodazole (50 ng/mL), respectively, for 16 hours. Cells were lysed in 25 mM Tris/HCl (pH 7.5) containing 125 mM NaCl, 0.5% NP-40, 5 mM EDTA, 2 mM DTT, 4 μg/mL pepstatin, 4 μg/mL aprotinin, 4 μg/mL leupeptin, 1 mM Na3VO4, 50 mM NaF, and […] microcystin, and 150 μgs of lysate incubated with 10 μL of glutathione agarose beads containing 2-5 μg of GST-Plk-1 (residues 326-603), GST-Pin1, or GST for 30 minutes at 4° C. Beads were washed four times with lysis buffer. Precipitated proteins were eluted in sample buffer and detected by blotting with monoclonal MPM-2 (Upstate Biotechnology, Inc.) or polyclonal anti-Cdc25C (Santa Cruz Biotechnology, Santa Cruz, Calif.). For peptide competition experiments, GST-Plk-1 (residues 326-603) was immobilized on glutathionine beads and preincubated with 320 μM of PoloBoxtide-optimal, −8T, or −7V for 45 minutes at 4° C. For binding experiments involving mutant cdc25C, HeLa cells were transfected with wild-type and mutated versions of HA-tagged Cdc25C in pECE using Superfect (Qiagen, Valencia, Calif.). Nocodazole (50 ng/mL) was added seventeen hours after transfection and cells incubated for an additional 14 hours to arrest them in G2/M. Point mutations of Cdc25C were constructed using the QuickChange site-directed mutagenesis system (Stratagene) and verified by DNA sequencing.

Substance: MAGPMQ-S-T-P-LNGAKK (MAGPMQSTPLNGAKK) [PoloBoxtide-8T]
- peptide binding to Plk-1 PBD by ITC (in words) [1]: complete loss of binding
- effect of peptide pre-incubation on GST-Plk-1 PBD binding of MPM-2 epitopes [2]: not
- effect of peptide pre-incubation on GST-Plk-1 PBD binding of MPM-2 epitopes ([2]; listed as 8T): had no effect
